The results in this text go back to the nanobody polyreactivity screen of Harvey et al. (2022).

A short description of this data set: yeast display, Sf9 membrane polyspecificity reagent, FACS + sequencing; frameworks hold sequencing errors. Summed up: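 In a synthetic yeast display library (Saccharomyces cerevisiae BJ5465), nanobody expression was induced with galactose for 36–48 hours. FACS gates were set low and high (top ~1%) using anti-HA fluorescence for expression and streptavidin fluorescence for binding of the Sf9 membrane reagent. Each polyreactivity label is drawn from the gate of origin.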
Regarding “QVQLVESGGGLVQAGGSLRLSCAASGSTSYRYAMGWYRQAPGKQRELVAGITRSGGSTYYADSVKGRFTMSRDNAKNSVYLQMNSLKPEDTAVYYCAAYYSRQYVGYGYWGQGTQVTVSS”, the “polyreactivity (PSR sort gate)” value is “high polyreactivity”.
In the case of “QVQLVESGGGLVQAGGSLRLSCAASGSTSYWYAMGWYRQAPGKERELVAAISSDDSTNYADSVKGRFTISRDNAKNTVYLQMNSLKPEDTAVYYFNREHYLIRYDYWGQGTQVTVSS”, the “polyreactivity (PSR sort gate)” value was “low polyreactivity”.
Consider “QVQLVESGGGLVQAGGSLRLSCAASGSTTYYAMGWYRQAPGKERELVAAISYSGGSTFYADSVKGRFRISRDNAKNTVYLQMNSLKPEDTAVYYCAADLGFPFDYWGQGTKVTVSS”, for which the “polyreactivity (PSR sort gate)” value was “low polyreactivity”.
Turning to “QVQLVESGGGLVQAGGSLRLSCAASGSTVESNVMGWYRQAPGKERELVAAISYSGGSTYIADSVKGRFTISRDNAKNTVYLQLNSLNPEDTAVLYSNALTSGYLYTFHRLWYPMYYWGQGTQGTVSS”, the “polyreactivity (PSR sort gate)” value was “high polyreactivity”.
Consider “QVQLVESGGGLVQAGGSLRLSCAASGSTVFGNAMGWYRQAPGKERELVAAITSGGSTNYADSVKGRFTISRDNAKNTVYLQMNSLKPEDTAVYYCAKPSRWGWTGFYAYDYWGQGTQVTVSS”, for which the “polyreactivity (PSR sort gate)” value was “low polyreactivity”.
For the sequence “QVQLVESGGGLVQAGGSLRLSCAASGSTVGLYTMGSYRHAPGKEMELFAAISWSDGSTYYEDSVKGRFTISRDNAKNTVYLQMISLKPEDTAVYYCAAEFLYQQSSWEFDYWGQGTQVTVSS”, the “polyreactivity (PSR sort gate)” value is recorded as “low polyreactivity”.
With “QVQLVESGGGLVQAGGSLRLSCAASGSTVRRNTMGWYRQAPGKERELVAGISSSGGSTYYADSVKGRFTISRDNAKNTVYLQINSLKPEDTAVYYCAARFYVSYVGYNYWGQGTQVTVSS”, the “polyreactivity (PSR sort gate)” value is given as “high polyreactivity”.
In the case of “QVQLVESGGGLVQAGGSLRLSCAASGSTVRVYAMGWYRQAPGKERELVARISITGGTTRYADSVKGRFTISRDNAKNTVYLQMNSLKPEDTAVYYCNADYDWYYWYLYKYPFDYWRQGTQVTVSS” it was “low polyreactivity”.
Take “QVQLVESGGGLVQAGGSLRLSCAASGSTVTSNAMGWSRQAPGKERELVAAISSGGSTYYADSVKGRFTISRDNAKNTVYLQMNSLKPEDTAVYYCAAEWHYIYAYDYWGQGTQVTVSS”: the “polyreactivity (PSR sort gate)” value is reported as “low polyreactivity”.
In the case of “QVQLVESGGGLVQAGGSLRLSCAASGSTVVYYAMGWYRQAPGKERELVAAITSGGSTNYADSVKGRFTISRDNAKITVYLQMNSLKPEDTAVYYCNAEPETTIDYWGQGTQVTVSS”, the “polyreactivity (PSR sort gate)” value was “low polyreactivity”.
For the sequence “QVQLVESGGGLVQAGGSLRLSCAASGSTVWKYVMGWYRQAPGKERELVAAISNSGVNTYYADSVKGRFTISRDNAKNTVYLQMNSLKTEDTAVYYCAADRGGYEYWGQGTQVTVSS”, the “polyreactivity (PSR sort gate)” value was “high polyreactivity”.
With “QVQLVESGGGLVQAGGSLRLSCAASGSTVYQYVMGRYRQAPGKVREFVAAITFSGSRTYYADSVKGRFTISRDNAKNTVYLQMNSLKPEDTAVYYCAVHSTSPRGKRYEYWGQGTQVTVSS”, the “polyreactivity (PSR sort gate)” value was “high polyreactivity”.
Turning to “QVQLVESGGGLVQAGGSLRLSCAASGSTVYVYAMGWYRQAPGKERELVATISSSGAITYYADSVKGRFTISRDNAKNTVYLQMNSLKPEDTAVYYCARTGSLLSQVWYNYWGQGTQVTVSS”, the “polyreactivity (PSR sort gate)” value is recorded as “low polyreactivity”.
For the sequence “QVQLVESGGGLVQAGGSLRLSCAASGSTWYYAMGWYRQAPGKERELVATISSGSRTYYADSVKGRFTISRDNAKNTVYLQMNSLKPEDTAVYYCAARESYAELNYWGQGTQVTVSS”, the “polyreactivity (PSR sort gate)” value is given as “high polyreactivity”.
On to “QVQLVESGGGLVQAGGSLRLSCAASGSTWYYAMGWYRQAPGKERELVATISSGSRTYYADSVKGRFTISRDNAKNTVYLQMNSLKPEDTAVYYCAARRRRFYYQYYRYDYWGQGTQVTVSS”, for which the “polyreactivity (PSR sort gate)” value is “high polyreactivity”.
In the case of “QVQLVESGGGLVQAGGSLRLSCAASGSTYAGYAMGWYRQAPGKERELVAAISRRGGSTYYADSVKGRFTISRDNAKNTVYLQMNSLKPEDTAVNYCNRDKYLRDPDYDYWGQGTQVTVSS”, the “polyreactivity (PSR sort gate)” value is “low polyreactivity”.
Regarding “QVQLVESGGGLVQAGGSLRLSCAASGSTYANAMGWYRQAPGKERELVAAITDNGGRTYYADSVKGRFTISRDNAKNTFYLQMNSLKPEDTAVYYCAARSSVWGQGTQVTVSS”, the “polyreactivity (PSR sort gate)” value is listed as “low polyreactivity”.
In the case of “QVQLVESGGGLVQAGGSLRLSCAASGSTYARYAMGWYRQAPGKEREFVAAISASGGRTYYADSVKGRFTISRDNAKNTVYLQMNSLKPEDTPVDYCAVRVYAKYFAKYDYWGQGTQVTVSS”, the “polyreactivity (PSR sort gate)” value is reported as “high polyreactivity”.
Turning to “QVQLVESGGGLVQAGGSLRLSCAASGSTYAYAMGWYRQAPGKEREFVAAITRSGGSTYYADSVKGRFTISRDNAKITVYLQMNSLKPEDTAVYYCRGNSTSWRGSQMDYWGQGTQVTVSS”, the “polyreactivity (PSR sort gate)” value was “high polyreactivity”.
“QVQLVESGGGLVQAGGSLRLSCAASGSTYENAMGWYRQAPGKERELVAVISRSGGSTYYADSVKGRFTISRDNAKNTVYLQMNSLKPEDTAVYYCATVYSAWSWVHGYYVAMDYWGQGTQVTVSS”: the “polyreactivity (PSR sort gate)” value is listed as “high polyreactivity”.
With “QVQLVESGGGLVQAGGSLRLSCAASGSTYERYAMGWYRQAPGKERELVAAISAIGDSTYYADSVKGRITISRDNANNTVYLQMNSLKPEDTAVYYCAARYTRYHIGRGYYYWGQGTQVTVSS”, the “polyreactivity (PSR sort gate)” value is reported as “high polyreactivity”.
For “QVQLVESGGGLVQAGGSLRLSCAASGSTYFHYAMGWYRQAPGKERELVAAISKSVGTTYYADSVKGRFTISRDNAKNTVYLQMNSLKPEDPAVYYCAADSVITWWAYDYWGQGTQVTVSS”, the “polyreactivity (PSR sort gate)” value is given as “high polyreactivity”.
For “QVQLVESGGGLVQAGGSLRLSCAASGSTYPYYAMGWYRQAPGKERELVAAITSSTGRTYYADAVKGRFTISRDNAKNTVYLQMNSLKPEDSAVYYCATYSTSVAYHLYYWGQGTQVTVSS”, the “polyreactivity (PSR sort gate)” value is recorded as “low polyreactivity”.
“QVQLVESGGGLVQAGGSLRLSCAASGSTYQGNAMGWYRQAPGKERELVAAISRSGGSTYADSVKGRFTISRDNAKNTVYLQMNSLKPEDTAVYYCAAYSGVGYLWFDYWGQGTQVTVSS”: the “polyreactivity (PSR sort gate)” value is “low polyreactivity”.
With “QVQLVESGGGLVQAGGSLRLSCAASGSTYQNAMGWYRQAPGKEREFVAAISWSGGSTYYADSVKGRFTISRDNAKNTVYLQMNSLKPEDTAVYYCAAYSYFSPRYDYWGQGTQVTVSS”, the “polyreactivity (PSR sort gate)” value is recorded as “high polyreactivity”.
As to “QVQLVESGGGLVQAGGSLRLSCAASGSTYRGNAMGWYRQAPGKEREFVAAITVSGGSTYYADSVKGRFTISRDNAKNTVFLQMNSLKPEDTAVYYCAARLTYNYYWGQGTQVTVSS”, the “polyreactivity (PSR sort gate)” value is given as “high polyreactivity”.
As to “QVQLVESGGGLVQAGGSLRLSCAASGSTYTNAMGWYRQAPGKERELVAAITWSGGTTYYADSVKGRFTISLDNAKNTVYLPMNSLKPEDTAVYYCAAEYRWYSWGQGTQVSVSS”, the “polyreactivity (PSR sort gate)” value is recorded as “high polyreactivity”.
In the case of “QVQLVESGGGLVQAGGSLRLSCAASGSTYTRYAMGLYRQAPGKEMELVATINVSGDRTYYADSVKGRFTISRDNAKNTVYLQMNSLKPEDTAVYYCNKYRYQWPYRRFDYWGQGTQVTVSS”, the “polyreactivity (PSR sort gate)” value is given as “high polyreactivity”.
On to “QVQLVESGGGLVQAGGSLRLSCAASGSTYYRYDMGWYRQAPGKERELCAAINWNGGTTYYADSVKGRFTISRDNAKNNVYLQMNSLKPEDTAVYYCTARSNSYVYPRLYNYWGQGTQVTVSS”, for which the “polyreactivity (PSR sort gate)” value was “high polyreactivity”.
As for “QVQLVESGGGLVQAGGSLRLSCAASGSTYYTYAMGWYRQAPGKERELVAAISWSGGTTYYADSVKGRFTISRDNAKNTVSLQMNSLKPEATAVYYCASDRDGILKANVYWGQCTQVTVSS”, the “polyreactivity (PSR sort gate)” value is listed as “low polyreactivity”.
In the case of “QVQLVESGGGLVQAGGSLRLSCAASGTFAVYTMGWYRQAPGKERELVAAISSGGSTYYADSVKGRFTISRDNAKNTVYLQMNSLKPEDTAVYYCAKVPGRYRADRYWDHYSHDYWGQGTQVTVSS” it was “high polyreactivity”; in that of “QVQLVESGGGLVQAGGSLRLSCAASGTFAVYTMGWYRQAPGKERELVAAITKSGGSTYYADSVKGRFTISRDNAKNTVYLQMNRLKPEDTAVYYCATRDSPRTKNGYYYWGQGTQVTVSS”, “high polyreactivity”.
Regarding “QVQLVESGGGLVQAGGSLRLSCAASGTFGLYAMGWYRQAPGKERELVAAIRARGGSTYYADSVKGRFTISRDNAKNTLYLQKNSLKPEETAVYYCAAEFWDVALARKQWYDYWGQGTQVTVSS”, the “polyreactivity (PSR sort gate)” value was “high polyreactivity”.
With “QVQLVESGGGLVQAGGSLRLSCAASGTFSFYAMGWYRQAPGKERELVATIRSGGRTYYADSVKGRFTISRDNAKNTVYFQINSLKPEDTAVYYCAKTGFLGLRQYGYWGQGTQVTVSS”, the “polyreactivity (PSR sort gate)” value is reported as “high polyreactivity”.
The result for “QVQLVESGGGLVQAGGSLRLSCAASGTFTGNAMGSYRQAPGKERELVAAITWSGGRTYYADSVKGRFTISRDNAKNTVYLQMNSLKPEDTAVYYCNAADEYLQERFWSDAFDYWGQGTQVTVSS” reads “high polyreactivity”.
On to “QVQLVESGGGLVQAGGSLRLSCAASGTFVSYVMGWYSQPPGKERELVAAINVRGASTYYADSVKGRFTISRDNAKITVYLQMNTLKPEDTAVYYCATEYVSGPEYDYWGQGTQVTVSS”, for which the “polyreactivity (PSR sort gate)” value is “low polyreactivity”.
The result for “QVQLVESGGGLVQAGGSLRLSCAASGTFVTYMGWYRQAPGKERELVAVISASGDSVKGRFTISRDNAKNTVYLQMNSLNPEDTAVYYCARELYRRVWHHWAYWAAYDYWGQGTQVTVSS” reads “low polyreactivity”.
In the case of “QVQLVESGGGLVQAGGSLRLSCAASGTFWWYAMGWYRQAPGKERELVASINRGGSTYYADSVKGRFTISRDNAKNTVYLQMNSLKPEDSAVYYCNARWIGRLTPYRRATYYYWGQGTQVTVSS” it was “high polyreactivity”.
For the sequence “QVQLVESGGGLVQAGGSLRLSCAASGTFYYNTMGCYRQAPGKERELVAAITSGGRTYADSVKGRFTISRDNAKNTVYLQMNSLKEEDTAVYYCAVDKPYPYRIIIWYEYDYWGQGNQVTVSS”, the “polyreactivity (PSR sort gate)” value is “low polyreactivity”.
As to “QVQLVESGGGLVQAGGSLRLSCAASGTIFIVNAMGWYRQAPGKERELVAAITQGDGSTYYADSVKGRFTISRDNAKNTVYLQMNSLKPEDTAVYYCAVGDLVAYTWQEYNYWGQGTQVNVSS”, the “polyreactivity (PSR sort gate)” value was “low polyreactivity”.
“QVQLVESGGGLVQAGGSLRLSCAASGTIFSDYAMGWYRQAPGKERELVATITSRGGSTHYADSVKGRFTISRDNAKNTVYLQMNSLKPEDTAVYYCIVRRLYVYTITSGDVDYDYWGQGTQVTVSS”: the “polyreactivity (PSR sort gate)” value is listed as “low polyreactivity”.
